Each binder was assayed against T1, HLA-A*24 (assay: UV peptide-exchange ELISA (anti-b2m); yield grade ++++ = >75%).
T1 construct: Monomers captured on streptavidin plates; also called peptide-receptive MHC molecules; MHC complexes
Description: (§1) Candidate peptides for T cell based therapies according to the present invention were further tested for their MHC binding capacity (affinity). The individual peptide-MHC complexes were produced by UV-ligand exchange, where a UV-sensitive peptide is cleaved upon UV-irradiation, and exchanged with the peptide of interest as analyzed. Only peptide candidates that can effectively bind and stabilize the peptide-receptive MHC molecules prevent dissociation of the MHC complexes. To determine the yield of the exchange reaction, an ELISA was performed based on the detection of the light chain (p2m) of stabilized MHC complexes. The assay was performed as generally described in Rodenko et al. (Rodenko et al., 2006)
(§2) 96 well MAXISorp plates (NUNC) were coated over night with 2 ug/ml streptavidin in PBS at room temperature, washed 4× and blocked for 1 h at 37° C. in 2% BSA containing blocking buffer. Refolded HLA-A*02:01/MLA-001 monomers served as standards, covering the range of 15-500 ng/ml. Peptide-MHC monomers of the UV-exchange reaction were diluted 100-fold in blocking buffer. Samples were incubated for 1 h at 37° C., washed four times, incubated with 2 ug/ml HRP conjugated anti-β2m for 1h at 37° C., washed again and detected with TMB solution that is stopped with […]. Absorption was measured at 450 nm. Candidate peptides that show a high exchange yield (preferably higher than 50%, most preferred higher than 75%) are generally preferred for a generation and production of antibodies or fragments thereof, and/or T cell receptors or fragments thereof, as they show sufficient avidity to the MHC molecules and prevent dissociation of the MHC complexes.

Binder | peptide exchange yield [%]
TYINSLAIL (also called TYINSLAIL) [TGM4-003] | > 75
NYTRLVLQF (also called NYTRLVLQF) [GABRP-004] | > 75
FYKLIQNGF (also called FYKLIQNGF) [FLT3-010] | > 75
RYTGQWSEW (also called RYTGQWSEW) [IL9R-001] | > 75
VFPLVTPLL (also called VFPLVTPLL) [PTP-042] | > 75
KWFDSHIPRW (also called KWFDSHIPRW) [ERV-002] | > 75
LYAFLGSHF (also called LYAFLGSHF) [KISS1R-003] | > 75
VYKEDLPQL (also called VYKEDLPQL) [EML-002] | > 75
TYVPSTFLVVL (also called TYVPSTFLVVL) [GABRP-006] | > 75
IYKDYYRYNF (also called IYKDYYRYNF) [PLA2G2D-001] | > 75
IGLSVVHRF (also called IGLSVVHRF) [OR51E2-003] | > 75
VYAVSSDRF (also called VYAVSSDRF) [DCX-001] | > 75
KYLSIPTVFF (also called KYLSIPTVFF) [UGT1A3-002] | > 75
VYIVPVIVL (also called VYIVPVIVL) [OXTR-002] | > 75
RWLDGSPVTL (also called RWLDGSPVTL) [CLEC17-005] | > 75
RYSPVKDAW (also called RYSPVKDAW) [KLHDC7B-006] | > 75
TYVPSTFLV (also called TYVPSTFLV) [GABRP-005] | > 75

Binder | peptide exchange yield [%]
RYFDENIQKF (also called RYFDENIQKF) [HEPHL-004] | > 75
SYATPVDLW (also called SYATPVDLW) [CDK6-007] | > 75
LYGFFFKI (also called LYGFFFKI) [BTBD16-002] | > 75
YFCSTKGQLF (also called YFCSTKGQLF) [FCRL2-004] | > 75
SYLPTAERL (also called SYLPTAERL) [SYT12-001] | > 75
TYSKTIALYGF (also called TYSKTIALYGF) [BTBD16-004] | > 75
IYIYPFAHW (also called IYIYPFAHW) [NPFFR2-002] | > 75
NYVLVPTMF (also called NYVLVPTMF) [CAPN6-003] | > 75
IYYSHENLI (also called IYYSHENLI) [F5-005] | > 75
SWHKATFLF (also called SWHKATFLF) [COL24-002] | > 75
SYLENSASW (also called SYLENSASW) [DLX5-003] | > 75
VLQGEFFLF (also called VLQGEFFLF) [KBTBD8-005] | > 75
RYLPNPSLNAF (also called RYLPNPSLNAF) [CYP1A1-002] | > 75
AYLKLLPMF (also called AYLKLLPMF) [SLC5A4-001] | > 75
YTIERYFTL (also called YTIERYFTL) [GABRP-007] | > 75
LYIDKGQYL (also called LYIDKGQYL) [HMCN1-011] | > 75

Each binder was assayed against T1, HLA-A*24 (assay: UV peptide-exchange ELISA (anti-b2m); yield grade ++ = >20%).
Description: as §1, §2

Binder | peptide exchange yield [%]
MLPQIPFLLL (also called MLPQIPFLLL) [COL10-001] | 20 to 50
SIYPHGVTF (also called SIYPHGVTF) [F5-007] | 20 to 50
RRYFGEKVAL (also called RRYFGEKVAL) [ANO7-005] | 20 to 50
EYNVFPRTL (also called EYNVFPRTL) [MMP13-004] | 20 to 50
VYDTMIEKFA (also called VYDTMIEKFA) [PTP-044] | 20 to 50
SLPGSFIYVF (also called SLPGSFIYVF) [HMCN1-012] | 20 to 50
MHRTWRETF (also called MHRTWRETF) [ANO7-004] | 20 to 50
IFQHFCEEI (also called IFQHFCEEI) [SMC1B-002] | 20 to 50
DYSKQALSL (also called DYSKQALSL) [LAMC2-018] | 20 to 50
IRPDYSFQF (also called IRPDYSFQF) [TRDV3-001] | 20 to 50
VYPSESTVM (also called VYPSESTVM) [PTP-045] | 20 to 50
RRVTWNVLF (also called RRVTWNVLF) [BTBD17-003] | 20 to 50
LQPPWTTVF (also called LQPPWTTVF) [FCRL5-006] | 20 to 50
FLPRAYYRW (also called FLPRAYYRW) [ANO7-001] | 20 to 50
SYFEYRRLL (also called SYFEYRRLL) [LAMC2-019] | 20 to 50
YIANLISCF (also called YIANLISCF) [GLYATL3-001] | 20 to 50
IMQGFIRAF (also called IMQGFIRAF) [PAE-002] | 20 to 50

Binder | peptide exchange yield [%]
ILQAPLSVF (also called ILQAPLSVF) [FCRL5-005] | 20 to 50
VWSCEGCKAF (also called VWSCEGCKAF) [ESR-001] | 20 to 50
KWFNVRMGFGF (also called KWFNVRMGFGF) [LIN-001] | 20 to 50
TYGEEMPEEI (also called TYGEEMPEEI) [DNAH17-004] | 20 to 50
YLKSVQLF (also called YLKSVQLF) [RFX8-001] | 20 to 50
ELMAHPFLL (also called ELMAHPFLL) [CYP4Z-002] | 20 to 50
VFQPNPLF (also called VFQPNPLF) [WISP3-002] | 20 to 50
VGRSPVFLF (also called VGRSPVFLF) [COL11A1-006] | 20 to 50
KYKPVALQCIA (also called KYKPVALQCIA) [HMCN1-009] | 20 to 50
ALFAVCWAPF (also called ALFAVCWAPF) [QRFPR-002] | 20 to 50
LYMRFVNTHF (also called LYMRFVNTHF) [SPINK2-002] | 20 to 50
VYVRPRVF (also called VYVRPRVF) [HMCN1-013] | 20 to 50
AQGSGTVTF (also called AQGSGTVTF) [FCRL3-004] | 20 to 50
RPEKVFVF (also called RPEKVFVF) [COL11A1-005] | 20 to 50
FMVIAGMPLF (also called FMVIAGMPLF) [SLC6A3-001] | 20 to 50
MFQFEHIKW (also called MFQFEHIKW) [FBXW10-001] | 20 to 50

Reference: US20190352359A1 (IMMATICS BIOTECHNOLOGIES, published 2019)
